Measured values: the supplement of paper PMC11246515
± gives the standard deviation of the averaged measurements.

Experiment: total protein half-life in vivo (active degradation + dilution); higher = more stable protein
[1] = E. coli NCM3722 delta-clpP delta-lon delta-hslV, growth: N-lim chemostat, doubling time 6 h
[2] = E. coli NCM3722 delta-clpP, growth: N-lim chemostat, doubling time 6 h
[3] = E. coli NCM3722 delta-hslV, growth: N-lim chemostat, doubling time 6 h
[4] = E. coli NCM3722 delta-lon, growth: N-lim chemostat, doubling time 6 h
[5] = E. coli NCM3722 delta-smpB, growth: N-lim chemostat, doubling time 6 h
[6] = wild type E. coli NCM3722, growth: C-lim chemostat, doubling time 6 h
[7] = wild type E. coli NCM3722, growth: C-lim chemostat, doubling time 12 h
[8] = wild type E. coli NCM3722, growth: N-lim chemostat, doubling time 6 h
[9] = wild type E. coli NCM3722, growth: N-lim chemostat, doubling time 12 h
[10] = wild type E. coli NCM3722, growth: P-lim chemostat, doubling time 6 h
[11] = wild type E. coli NCM3722, growth: P-lim chemostat, doubling time 12 h
[12] = wild type E. coli NCM3722, growth: C-lim chemostat, doubling time 3 h

## MSVRNIFADESHDIYTVRTHADGPDGELPLTAEMLINRPSGDLFGMTMNAGMGWSPDELDRDGILLLSTLGGLRGADGKPVALALHQGHYELDIQMKAAAEVIKANHALPYAVYVSDPCDGRTQGTTGMFDSLPYRNDASMVMRRLIRSLPDAKAVIGVASCDKGLPATMMALAAQHNIATVLVPGGATLPAKDGEDNGKVQTIGARFANGELSLQDARRAGCKACASSGGGCQFLGTAGTSQVVAEGLGLAIPHSALAPSGEPVWREIARASARAALNLSQKGITTREILTDKAIENAMTVHAAFGGSTNLLLHIPAIAHQAGCHIPTVDDWIRINKRVPRLVSVLPNGPVYHPTVNAFMAGGVPEVMLHLRSLGLLHEDVMTVTGSTLKENLDWWEHSERRQRFKQLLLDQEQINADEVIMSPQQAKARGLTSTITFPVGNIAPEGSVIKSTAIDPSMIDEQGIYYHKGVAKVYLSEKSAIYDIKHDKIKAGDILVIIGVGPSGTGMEETYQVTSALKHLSYGKHVSLITDARFSGVSTGACIGHVGPEALAGGPIGKLRTGDLIEIKIDCRELHGEVNFLGTRSDEQLPSQEEATAILNARPSHQDLLPDPELPDDTRLWAMLQAVSGGTWTGCIYDVNKIGAALRDFMNKN
[1]
  total protein half-life in vivo: 4.08 ± 0.67 h
[2]
  total protein half-life in vivo: 3.14 h
[3]
  total protein half-life in vivo: 3.82 ± 0.38 h
[4]
  total protein half-life in vivo: 4.55 ± 0.14 h
[5]
  total protein half-life in vivo: 3.33 ± 0.14 h
[6]
  total protein half-life in vivo: 5.0317 ± 0.00062 h
[7]
  total protein half-life in vivo: 8.896 ± 0.017 h
[8]
  total protein half-life in vivo: 3.48 ± 0.52 h
[9]
  total protein half-life in vivo: 4.88 ± 1.1 h
[10]
  total protein half-life in vivo: 5.43 ± 0.13 h
[11]
  total protein half-life in vivo: 10.1 ± 0.58 h

## MSVTIQGNTSTVISNNSAPEGTSEIAKITRQIQVLTEKLGKISSEEGMTTQQKKEMAALVQKQIESLWAQLEQLLRQQAEKKNEDATVQPDKKEEKKDDTNTAGTIDIYV
[12]
  total protein half-life in vivo: 0.426 h

## MSWISPELIEILLTILKAVVILLVVVTCGAFMSFGERRLLGLFQNRYGPNRVGWGGSLQLVADMIKMFFKEDWIPKFSDRVIFTLAPMIAFTSLLLAFAIVPVSPGWVVADLNIGILFFLMMAGLAVYAVLFAGWSSNNKYSLLGAMRASAQTLSYEVFLGLSLMGVVAQAGSFNMTDIVNSQAHVWNVIPQFFGFITFAIAGVAVCHRHPFDQPEAEQELADGYHIEYSGMKFGLFFVGEYIGIVTISALMVTLFFGGWQGPLLPPFIWFALKTAFFMMMFILIRASLPRPRYDQVMSFGWKICLPLTLINLLVTAAVILWQAQ [P0AFD4]
[2]
  total protein half-life in vivo: 6.49 ± 0.27 h
[3]
  total protein half-life in vivo: 5.73 ± 0.34 h
[4]
  total protein half-life in vivo: 6.09 ± 0.59 h
[5]
  total protein half-life in vivo: 6.41 ± 1.4 h
[6]
  total protein half-life in vivo: 6.75 ± 1.2 h
[7]
  total protein half-life in vivo: 13.8 ± 2 h
[8]
  total protein half-life in vivo: 6.53 ± 0.46 h
[9]
  total protein half-life in vivo: 9.26 ± 2 h
[10]
  total protein half-life in vivo: 6.237 ± 0.017 h
[11]
  total protein half-life in vivo: 13.1 ± 3 h

## MSWLKEVIGTEKAVIAMCHLRALPGDPSFDAQLGMNWVIDKAWDDLMALQNGGVDAVMFSNEFSLPYLTKVRPETTAAMARIIGQLMSDIRIPFGVNVLWDPVASFDLAMATGAKFIREIFTGAYASDFGVWDTNVGETIRHQHRIGAGEVKTLFNIVPEAAVYLGNRDICSIAKSTVFNNHPDALCVSGLTAGTRTDSALLKRVKETVPDTVVLANTGVCLENVEEQLSIADGCVTATTFKKDGVFANFVDQARVSQFMEKVHHIRR
[1]
  total protein half-life in vivo: 4.34 ± 0.67 h
[12]
  total protein half-life in vivo: 1.07 ± 0.83 h
[6]
  total protein half-life in vivo: 5.65 ± 0.48 h
[7]
  total protein half-life in vivo: 8.62 ± 0.11 h
[11]
  total protein half-life in vivo: 3.45 h

## MSYLNLRLYQRNTQCLHIRKHRLAGFFVRLVVACAFAAQAPLSSADLYFNPRFLADDPQAVADLSRFENGQELPPGTYRVDIYLNNGYMATRDVTFNTGDSEQGIVPCLTRAQLASMGLNTASVAGMNLLADDACVPLTTMVQDATAHLDVGQQRLNLTIPQAFMSNRARGYIPPELWDPGINAGLLNYNFSGNSVQNRIGGNSHYAYLNLQSGLNIGAWRLRDNTTWSYNSSDRSSGSKNKWQHINTWLERDIIPLRSRLTLGDGYTQGDIFDGINFRGAQLASDDNMLPDSQRGFAPVIHGIARGTAQVTIKQNGYDIYNSTVPPGPFTINDIYAAGNSGDLQVTIKEADGSTQIFTVPYSSVPLLQREGHTRYSITAGEYRSGNAQQEKTRFFQSTLLHGLPAGWTIYGGTQLADRYRAFNFGIGKNMGALGALSVDMTQANSTLPDDSQHDGQSVRFLYNKSLNESGTNIQLVGYRYSTSGYFNFADTTYSRMNGYNIETQDGVIQVKPKFTDYYNLAYNKRGKLQLTVTQQLGRTSTLYLSGSHQTYWGTSNVDEQFQAGLNTAFEDINWTLSYSLTKNAWQKGRDQMLALNVNIPFSHWLRSDSKSQWRHASASYSMSHDLNGRMTNLAGVYGTLLEDNNLSYSVQTGYAGGGDGNSGSTGYATLNYRGGYGNANIGYSHSDDIKQLYYGVSGGVLAHANGVTLGQPLNDTVVLVKAPGAKDAKVENQTGVRTDWRGYAVLPYATEYRENRVALDTNTLADNVDLDNAVANVVPTRGAIVRAEFKARVGIKLLMTLTHNNKPLPFGAMVTSESSQSSGIVADNGQVYLSGMPLAGKVQVKWGEEENAHCVANYQLPPESQQQLLTQLSAECR
[5]
  total protein half-life in vivo: 5.97 ± 0.21 h
[12]
  total protein half-life in vivo: 3.14 h
[6]
  total protein half-life in vivo: 6.02 h
[7]
  total protein half-life in vivo: > 16 h
[8]
  total protein half-life in vivo: > 8 h
[9]
  total protein half-life in vivo: > 16 h
[10]
  total protein half-life in vivo: 6.2 h
[11]
  total protein half-life in vivo: > 16 h

## MSYPSLFAPLDLGFTTLKNRVLMGSMHTGLEEYPDGAERLAAFYAERARHGVALIVSGGIAPDLTGVGMEGGAMLNDASQIPHHRTITEAVHQEGGKIALQILHTGRYSYQPHLVAPSALQAPINRFVPHELSHEEILQLIDNFARCAQLAREAGYDGVEVMGSEGYLINEFLTLRTNQRSDQWGGDYRNRMRFAVEVVRAVRERVGNDFIIIYRLSMLDLVEDGGTFAETVELAQAIEAAGATIINTGIGWHEARIPTIATPVPRGAFSWVTRKLKGHVSLPLVTTNRINDPQVADDILSRGDADMVSMARPFLADAELLSKAQSGRADEINTCIGCNQACLDQIFVGKVTSCLVNPRACHETKMPILPAVQKKNLAVVGAGPAGLAFAINAAARGHQVTLFDAHSEIGGQFNIAKQIPGKEEFYETLRYYRRMIEVTGVTLKLNHTVTADQLQAFDETILASGIVPRTPPIDGIDHPKVLSYLDVLRDKAPVGNKVAIIGCGGIGFDTAMYLSQPGESTSQNIAGFCNEWGIDSSLQQAGGLSPQGMQIPRSPRQIVMLQRKASKPGQGLGKTTGWIHRTTLLSRGVKMIPGVSYQKIDDDGLHVVINGETQVLAVDNVVICAGQEPNRALAQPLIDSGKTVHLIGGCDVAMELDARRAIAQGTRLALEI
[1]
  total protein half-life in vivo: 6.33 ± 2.2 h
[2]
  total protein half-life in vivo: 3.52 ± 0.043 h
[5]
  total protein half-life in vivo: 2.74 ± 0.96 h
[12]
  total protein half-life in vivo: 2.93 ± 0.18 h
[6]
  total protein half-life in vivo: 4.94 ± 0.13 h
[7]
  total protein half-life in vivo: 9.61 ± 2.1 h
[10]
  total protein half-life in vivo: 5.18 ± 0.79 h
[11]
  total protein half-life in vivo: 10.6 ± 0.13 h

## MSYQYVNVVTINKVAVIEFNYGRKLNALSKVFIDDLMQALSDLNRPEIRCIILRAPSGSKVFSAGHDIHELPSGGRDPLSYDDPLRQITRMIQKFPKPIISMVEGSVWGGAFEMIMSSDLIIAASTSTFSMTPVNLGVPYNLVGIHNLTRDAGFHIVKELIFTASPITAQRALAVGILNHVVEVEELEDFTLQMAHHISEKAPLAIAVIKEELRVLGEAHTMNSDEFERIQGMRRAVYDSEDYQEGMNAFLEKRKPNFVGH
[1]
  total protein half-life in vivo: 5.13 h
[12]
  total protein half-life in vivo: 2.48 h
[6]
  total protein half-life in vivo: 2.79 h
[7]
  total protein half-life in vivo: 6.64 h
